Data reported in IntAct's records for PubMed 19644450.

B1: Isoform 2 of C-Jun-amino-terminal kinase-interacting protein 4 (Homo sapiens), O60271-2 (parent)
chain: MELEDGVVYQEEPGGSGAVMSERVSGLAGSIYREFERLIGRYDEEVVKELMPLVVAVLENLDSVFAQDQEHQVELELLRDDNEQLITQYEREKALRKHAEEKFIEFEDSQEQEKKDLQTRVESLESQTRQLELKAKNYADQISRLEEREAELKKEYNALHQRHTEMIHNYMEHLERTKLHQLSGSDQLESTAHSRIRKERPISLGIFPLPAGDGLLTPDAQKGGETPGSEQWKFQELSQPRSHTSLKDELSDVSQGGSKATTPASTANSDVATIPTDTPLKEENEGFVKVTDAPNKSEISKHIEVQVAQETRNVSTGSAENEEKSEVQAIIESTPELDMDKDLSGYKGSSTPTKGIENKAFDRNTESLFEELSSAGSGLIGDVDEGADLLGMGREVENLILENTQLLETKNALNIVKNDLIAKVDELTCEKDVLQGELEAVKQAKLKLEEKNRELEEELRKARAEAEDARQKAKDDDDSDIPTAQRKRFTRVEMARVLMERNQYKERLMELQEAVRWTEMIRASRENPAMQEKKRSSIWQFVPTRFSRLFSSSSNTTKKPEPPVNLKYNAPTSHVTPSVKKRSSTLSQLPGDKSKAFDFLSEETEASLASRREQKREQYRQVKAHVQKEDGRVQAFGWSLPQKYKQVTNGQGENKMKNLPVPVYLRPLDEKDTSMKLWCAVGVNLSGGKTRDGGSVVGASVFYKDVAGLDTEGSKQRSASQSSLDKLDQELKEQQKELKNQEELSSLVWICTSTHSATKVLIIDAVQPGNILDSFTVCNSHVLCIASVPGARETDYPAGEDLSESGQVDKASLCGSMTSNSSAETDSLLGGITVVGCSAEGVTGAATSPSTNGASPVMDKPPEMEAENSEVDENVPTAEEATEATEGNAGSAEDTVDISQTGVYTEHVFTDPLGVQIPEDLSPVYQSSNDSDAYKDQISVLPNEQDLVREEAQKMSSLLPTMWLGAQNGCLYVHSSVAQWRKCLHSIKLKDSILSIVHVKGIVLVALADGTLAIFHRGVDGQWDLSNYHLLDLGRPHHSIRCMTVVHDKVWCGYRNKIYVVQPKAMKIEKSFDAHPRKESQVRQLAWVGDGVWVSIRLDSTLRLYHAHTYQHLQDVDIEPYVSKMLGTGKLGFSFVRITALMVSCNRLWVGTGNGVIISIPLTETNKTSGVPGNRPGSVIRVYGDENSDKVTPGTFIPYCSMAHAQLCFHGHRDAVKFFVAVPGQVISPQSSSSGTDLTGDKAGPSAQEPGSQTPLKSMLVISGGEGYIDFRMGDEGGESELLGEDLPLEPSVTKAERSHLIVWQVMYGNE

Variants of: B1
Conditions: with arf6_human ARF6, P62330
arf6_human ARF6, P62330, sequence (P62330 whole entry): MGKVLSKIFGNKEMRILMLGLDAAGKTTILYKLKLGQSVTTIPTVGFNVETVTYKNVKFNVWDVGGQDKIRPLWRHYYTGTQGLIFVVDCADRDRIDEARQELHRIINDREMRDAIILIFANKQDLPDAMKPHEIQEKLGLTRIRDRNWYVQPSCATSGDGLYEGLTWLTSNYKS

| Variant | effect of a mutation on the interaction |
| --- | --- |
| D425A | decreasing interaction |

Variants of: B1
Conditions: with arf6_human ARF6, P62330
Remark: another data set of the same source

| Variant | effect of a mutation on the interaction |
| --- | --- |
| I421A | decreasing interaction |
